Results taken from CN117229395A.

Experiments:
CT9 (human) = target: T1, CT9 (human); experiment: competition ELISA; antibody pre-incubated with peptide, then on coated CT antigen
T1 sequence (peptide): QDFNKFHTFP

CT17 (human) = target: T2, CT17 (human); experiment: as above
T2 sequence (peptide): FNKFH

CT8 (human) = target: T3, CT8 (human); experiment: as above
T3 sequence (peptide): QDFNKFHTF

CT13 (human) = target: T4, CT13 (human); experiment: as above
T4 sequence (peptide): DFNKFHTF

CT5 (human) = target: T5, CT5 (human); experiment: as above
T5 sequence (peptide): TQDFNKFHTF

CT7 (human) = target: T6, CT7 (human); experiment: as above
T6 sequence (peptide): TQDFNKFHTFPQ

CT15 (human) = target: T7, CT15 (human); experiment: as above
T7 sequence (peptide): DFNKFHTFPQ

CT18 (human) = target: T8, CT18 (human); experiment: as above
T8 sequence (peptide): FNKFHT

CT6 (human) = target: T9, CT6 (human); experiment: as above
T9 sequence (peptide): TQDFNKFHTFP

CT1 (human) = target: T10, CT1 (human); experiment: as above
T10 sequence (peptide): CGNLSTCMLGTYTQDF

CT12 (human) = target: T11, CT12 (human); experiment: as above
T11 sequence (peptide): DFNKFHT

CT3 (human) = target: T12, CT3 (human); experiment: as above
T12 sequence (peptide): NKFHTFPQTAIGVGAP

CT11 (human) = target: T13, CT11 (human); experiment: as above
T13 sequence (peptide): DFNKFH

CT10 (human) = target: T14, CT10 (human); experiment: as above
T14 sequence (peptide): QDFNKFHTFPQ

CT4 (human) = target: T15, CT4 (human); experiment: as above
T15 sequence (peptide): YTQDFNKFHTFP

CT16 (human) = target: T16, CT16 (human); experiment: as above
T16 sequence (peptide): FNKF

CT14 (human) = target: T17, CT14 (human); experiment: as above
T17 sequence (peptide): DFNKFHTFP

CT2 (human) = target: T18, CT2 (human); experiment: as above
T18 sequence (peptide): LGTYTQDFNKFHTFPQ

[1] = target: T19, WHO国际标准降钙素(Human NIBSC code:89/620) (Human) (UniProt P01258); experiment: sandwich chemiluminescence; CT captured by 10B11 magnetic beads, detected by acridinium ester labelled 14D11
T19 sequence (peptide, looked up): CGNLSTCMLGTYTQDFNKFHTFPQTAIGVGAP

CT24 (human) = experiment: competition ELISA; antibody pre-incubated with peptide, then on coated CT antigen
CT21 (human) = target: T20, CT21 (human); experiment: as above
T20 sequence (peptide, C-terminal amide (-NH2)): HTFPQTAIGVGAP

CT25 (human) = target: T21, CT25 (human); experiment: as above
T21 sequence (peptide, C-terminal amide (-NH2)): VGAP

CT23 (human) = target: T22, CT23 (human); experiment: as above
T22 sequence (peptide, C-terminal amide (-NH2)): IGVGAP

CT26 (human) = experiment: as above
CT22 (human) = target: T23, CT22 (human); experiment: as above
T23 sequence (peptide, C-terminal amide (-NH2)): QTAIGVGAP

CT44 (human) = target: T24, CT44 (human); experiment: competition ELISA; antibody pre-incubated with alanine-mutant peptide, then on coated CT antigen
T24 sequence (peptide, C-terminal amide (-NH2)): QAAIGVGAP

CT46 (human) = target: T25, CT46 (human); experiment: as above
T25 sequence (peptide, C-terminal amide (-NH2)): QTAIAVGAP

CT45 (human) = target: T26, CT45 (human); experiment: as above
T26 sequence (peptide, C-terminal amide (-NH2)): QTAAGVGAP

CT47 (human) = target: T27, CT47 (human); experiment: as above
T27 sequence (peptide, C-terminal amide (-NH2)): QTAIGAGAP

CT43 (human) = target: T28, CT43 (human); experiment: as above
T28 sequence (peptide, C-terminal amide (-NH2)): ATAIGVGAP

CT49 (human) = target: T29, CT49 (human); experiment: as above
T29 sequence (peptide, C-terminal amide (-NH2)): QTAIGVGAA

CT48 (human) = target: T30, CT48 (human); experiment: as above
T30 sequence (peptide, C-terminal amide (-NH2)): QTAIGVAAP

B1: 14D11 (antibody, V domains shown)
VH: EVQLQQSGPELVKPGTSVKIFCMTSGYTFTEFTMHWVKKSPGESLEWIGGIFPDNGGSTYNRKFKDKATLTVDRSSRTAYLELRSLTSEDSAVYYCARYYYNGRAYGIYAMDYWGQGTSVTVSS
VL: DVVLTQSPLSLFVSLGDQVSISCRSSQSLVHSNGNTYLHWYQLKTGQSPKLLIYTVSNRFSGVPDRFSGSGSGTDFTLKINRVEAEDLGVYFCSQSKLVPWTFGGGTKLEIK
competition rate (对照样品OD值-检测样品OD值)/对照样品OD值 (CT9 (human)): 95% | competition rate (对照样品OD值-检测样品OD值)/对照样品OD值 (CT17 (human)): -14% | competition rate (对照样品OD值-检测样品OD值)/对照样品OD值 (CT8 (human)): 92% | competition rate (对照样品OD值-检测样品OD值)/对照样品OD值 (CT13 (human)): 92% | competition rate (对照样品OD值-检测样品OD值)/对照样品OD值 (CT5 (human)): 91% | competition rate (对照样品OD值-检测样品OD值)/对照样品OD值 (CT7 (human)): 95% | competition rate (对照样品OD值-检测样品OD值)/对照样品OD值 (CT15 (human)): 91% | competition rate (对照样品OD值-检测样品OD值)/对照样品OD值 (CT18 (human)): 30% | competition rate (对照样品OD值-检测样品OD值)/对照样品OD值 (CT6 (human)): 94% | competition rate (对照样品OD值-检测样品OD值)/对照样品OD值 (CT1 (human)): 1% | competition rate (对照样品OD值-检测样品OD值)/对照样品OD值 (CT12 (human)): 92% | competition rate (对照样品OD值-检测样品OD值)/对照样品OD值 (CT3 (human)): 32% | competition rate (对照样品OD值-检测样品OD值)/对照样品OD值 (CT11 (human)): 68% | competition rate (对照样品OD值-检测样品OD值)/对照样品OD值 (CT10 (human)): 95% | competition rate (对照样品OD值-检测样品OD值)/对照样品OD值 (CT4 (human)): 99% | competition rate (对照样品OD值-检测样品OD值)/对照样品OD值 (CT16 (human)): 11% | competition rate (对照样品OD值-检测样品OD值)/对照样品OD值 (CT14 (human)): 91% | competition rate (对照样品OD值-检测样品OD值)/对照样品OD值 (CT2 (human)): 99% | 发光值 at CT(WHO) 0.125pg/ml [1]: 1730 | 发光值 at CT(WHO) 0.25pg/ml [1]: 2410 | 发光值 at CT(WHO) 0.5pg/ml [1]: 4030 | 发光值 at CT(WHO) 1pg/ml [1]: 7460 | 发光值 at CT(WHO) 2pg/ml [1]: 13600

B2: 10B11 (antibody, V domains shown)
VH: SDVQLQESGPGLVKPSQSLSLTCTVTGYSITSDYVWNWIRQFPGNKLEWMGYISYSGSTNYNPSLKSRISITRDTSKNQFFLQLNSVTTEDTATYYCAREDWPAWGQ
VL: DIVMTQSQKLMSTSVGDRVSITCKASQNVRSAVAWYQQKPGQSPKTLIYLTSNRHTGVPDRFTGSGSGTDFTLTINNVQSEDLADYFCLQHWNSPLTFGGGTKLEIK
competition rate (对照样品OD值-检测样品OD值)/对照样品OD值 (CT24 (human)): 98% | competition rate (对照样品OD值-检测样品OD值)/对照样品OD值 (CT21 (human)): 98% | competition rate (对照样品OD值-检测样品OD值)/对照样品OD值 (CT25 (human)): 98% | competition rate (对照样品OD值-检测样品OD值)/对照样品OD值 (CT23 (human)): 98% | competition rate (对照样品OD值-检测样品OD值)/对照样品OD值 (CT26 (human)): 60% | competition rate (对照样品OD值-检测样品OD值)/对照样品OD值 (CT22 (human)): 98% | competition rate (对照样品OD值-检测样品OD值)/对照样品OD值 (CT44 (human)): 98% | competition rate (对照样品OD值-检测样品OD值)/对照样品OD值 (CT46 (human)): 92% | competition rate (对照样品OD值-检测样品OD值)/对照样品OD值 (CT45 (human)): 97% | competition rate (对照样品OD值-检测样品OD值)/对照样品OD值 (CT47 (human)): 85% | competition rate (对照样品OD值-检测样品OD值)/对照样品OD值 (CT43 (human)): 97% | competition rate (对照样品OD值-检测样品OD值)/对照样品OD值 (CT49 (human)): 56% | competition rate (对照样品OD值-检测样品OD值)/对照样品OD值 (CT48 (human)): 62%
